Reference: the supplement of paper PMC10065799, “High-throughput profiling of sequence recognition by tyrosine kinases and SH2 domains using bacterial peptide display” (eLife, 2023)

Assays:
SHP2-C SH2 = assay: SH2 binding enrichment of the phosphorylated peptide, bacterial display (enrichment ratio); higher = better substrate or ligand; peptides without Tyr show the background
c-Src SH2 = assay: as above
Grb2 SH2 = Grb2 SH2 (UniProt P62993); assay: as above
Fer (mouse) = assay: phosphorylation enrichment, bacterial display (enrichment ratio); higher = better substrate or ligand; peptides without Tyr show the background
FGFR1 = FGFR1 (UniProt P11362); assay: as above
FGFR3 = FGFR3 (UniProt P22607); assay: as above
Fyn = Fyn (UniProt P06241); assay: as above
Fes = Fes (UniProt P07332); assay: as above
EPHB2 = EPHB2 (UniProt P29323); assay: as above
AncSZ = assay: as above
MERTK = MERTK (UniProt Q12866); assay: as above
EPHB1 = EPHB1 (UniProt P54762); assay: as above
Hck = Hck (UniProt P08631); assay: as above
Jak2 = Jak2 (UniProt O60674); assay: as above
c-Src = assay: as above
c-Abl (mouse) = assay: as above
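Wherever SH2 binding enrichment of the phosphorylated peptide, bacterial display is given: peptide library displayed on the E. coli surface as eCPX fusions, selected cells deep-sequenced, score is each peptide's frequency after selection divided by its frequency in the input.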
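Wherever phosphorylation enrichment, bacterial display is given: 11-residue human phosphosite peptides and single-mutation variants displayed on the E. coli surface, counted by deep sequencing, each peptide's frequency after selection divided by its frequency in the unselected input library; frequency after pTyr selection over input frequency; kinase dosed for 20-30% of maximal phosphorylation in three min.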

EPHB1, sequence (P54762 whole entry, looked up): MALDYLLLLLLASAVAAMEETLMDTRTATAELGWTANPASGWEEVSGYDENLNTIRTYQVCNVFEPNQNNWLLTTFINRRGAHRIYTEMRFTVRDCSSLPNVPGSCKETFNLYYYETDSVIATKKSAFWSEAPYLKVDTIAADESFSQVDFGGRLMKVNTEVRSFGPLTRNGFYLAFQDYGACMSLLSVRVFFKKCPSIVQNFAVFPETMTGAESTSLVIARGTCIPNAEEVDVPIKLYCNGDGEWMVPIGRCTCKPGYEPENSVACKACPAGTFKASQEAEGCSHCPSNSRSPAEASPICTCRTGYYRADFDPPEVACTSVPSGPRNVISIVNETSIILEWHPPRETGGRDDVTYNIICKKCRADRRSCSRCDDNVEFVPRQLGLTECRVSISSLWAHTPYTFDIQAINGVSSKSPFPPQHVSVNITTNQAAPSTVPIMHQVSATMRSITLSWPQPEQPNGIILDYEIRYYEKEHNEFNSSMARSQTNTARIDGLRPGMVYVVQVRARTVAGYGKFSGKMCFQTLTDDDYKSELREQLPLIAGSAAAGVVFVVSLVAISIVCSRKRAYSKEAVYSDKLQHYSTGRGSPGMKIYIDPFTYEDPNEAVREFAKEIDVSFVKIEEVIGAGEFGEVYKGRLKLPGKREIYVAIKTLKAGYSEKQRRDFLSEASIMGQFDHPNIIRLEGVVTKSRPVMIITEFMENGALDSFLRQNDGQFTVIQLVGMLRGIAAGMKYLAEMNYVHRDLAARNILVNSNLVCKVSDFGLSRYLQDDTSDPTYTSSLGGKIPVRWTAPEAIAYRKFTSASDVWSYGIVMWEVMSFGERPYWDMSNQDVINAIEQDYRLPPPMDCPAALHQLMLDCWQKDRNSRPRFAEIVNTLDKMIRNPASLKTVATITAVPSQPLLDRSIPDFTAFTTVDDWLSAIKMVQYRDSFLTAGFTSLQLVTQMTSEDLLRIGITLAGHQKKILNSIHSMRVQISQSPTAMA
Hck, sequence (P08631 whole entry, looked up): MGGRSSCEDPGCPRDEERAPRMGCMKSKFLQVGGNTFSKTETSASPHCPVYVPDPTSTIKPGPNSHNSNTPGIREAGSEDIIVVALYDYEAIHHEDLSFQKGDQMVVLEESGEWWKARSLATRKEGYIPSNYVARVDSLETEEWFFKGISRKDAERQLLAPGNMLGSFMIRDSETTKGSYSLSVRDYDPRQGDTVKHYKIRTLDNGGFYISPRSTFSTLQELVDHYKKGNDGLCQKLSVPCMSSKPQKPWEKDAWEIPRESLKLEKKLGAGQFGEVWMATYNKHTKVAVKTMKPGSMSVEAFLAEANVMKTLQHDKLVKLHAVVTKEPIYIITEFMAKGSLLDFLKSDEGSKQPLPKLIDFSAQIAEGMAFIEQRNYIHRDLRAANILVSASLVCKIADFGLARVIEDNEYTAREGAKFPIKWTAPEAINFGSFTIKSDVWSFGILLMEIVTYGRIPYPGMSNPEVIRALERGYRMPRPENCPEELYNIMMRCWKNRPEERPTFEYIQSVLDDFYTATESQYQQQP
Jak2, sequence (O60674 whole entry, looked up): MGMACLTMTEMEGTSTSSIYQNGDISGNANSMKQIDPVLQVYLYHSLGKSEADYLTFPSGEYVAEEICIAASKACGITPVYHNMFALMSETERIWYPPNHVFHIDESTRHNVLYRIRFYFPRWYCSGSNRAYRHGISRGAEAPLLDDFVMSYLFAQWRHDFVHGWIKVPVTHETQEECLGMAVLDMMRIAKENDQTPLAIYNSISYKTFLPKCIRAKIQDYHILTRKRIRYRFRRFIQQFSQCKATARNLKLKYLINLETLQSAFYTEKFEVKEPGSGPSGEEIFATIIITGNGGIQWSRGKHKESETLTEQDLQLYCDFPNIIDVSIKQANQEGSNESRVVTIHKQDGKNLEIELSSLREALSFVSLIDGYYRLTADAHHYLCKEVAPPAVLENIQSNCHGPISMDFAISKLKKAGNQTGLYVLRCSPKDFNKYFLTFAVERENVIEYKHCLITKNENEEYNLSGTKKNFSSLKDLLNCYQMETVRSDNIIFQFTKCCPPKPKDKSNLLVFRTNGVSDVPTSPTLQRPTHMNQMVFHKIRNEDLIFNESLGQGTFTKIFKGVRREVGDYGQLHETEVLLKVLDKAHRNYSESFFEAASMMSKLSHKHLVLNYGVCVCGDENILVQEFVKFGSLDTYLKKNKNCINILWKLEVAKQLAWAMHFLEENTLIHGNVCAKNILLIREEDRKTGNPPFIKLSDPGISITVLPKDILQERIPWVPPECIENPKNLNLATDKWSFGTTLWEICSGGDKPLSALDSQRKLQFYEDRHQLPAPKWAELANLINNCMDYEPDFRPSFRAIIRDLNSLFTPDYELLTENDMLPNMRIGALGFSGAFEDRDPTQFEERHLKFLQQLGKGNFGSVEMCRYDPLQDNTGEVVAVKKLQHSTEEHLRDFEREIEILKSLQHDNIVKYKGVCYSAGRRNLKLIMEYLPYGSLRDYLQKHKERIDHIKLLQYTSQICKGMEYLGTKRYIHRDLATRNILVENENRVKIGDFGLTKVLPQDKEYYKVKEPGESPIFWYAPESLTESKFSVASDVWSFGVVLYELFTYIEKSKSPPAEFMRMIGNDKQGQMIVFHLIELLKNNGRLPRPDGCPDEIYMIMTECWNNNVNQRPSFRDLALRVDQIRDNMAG
EPHB2, sequence (P29323 whole entry, looked up): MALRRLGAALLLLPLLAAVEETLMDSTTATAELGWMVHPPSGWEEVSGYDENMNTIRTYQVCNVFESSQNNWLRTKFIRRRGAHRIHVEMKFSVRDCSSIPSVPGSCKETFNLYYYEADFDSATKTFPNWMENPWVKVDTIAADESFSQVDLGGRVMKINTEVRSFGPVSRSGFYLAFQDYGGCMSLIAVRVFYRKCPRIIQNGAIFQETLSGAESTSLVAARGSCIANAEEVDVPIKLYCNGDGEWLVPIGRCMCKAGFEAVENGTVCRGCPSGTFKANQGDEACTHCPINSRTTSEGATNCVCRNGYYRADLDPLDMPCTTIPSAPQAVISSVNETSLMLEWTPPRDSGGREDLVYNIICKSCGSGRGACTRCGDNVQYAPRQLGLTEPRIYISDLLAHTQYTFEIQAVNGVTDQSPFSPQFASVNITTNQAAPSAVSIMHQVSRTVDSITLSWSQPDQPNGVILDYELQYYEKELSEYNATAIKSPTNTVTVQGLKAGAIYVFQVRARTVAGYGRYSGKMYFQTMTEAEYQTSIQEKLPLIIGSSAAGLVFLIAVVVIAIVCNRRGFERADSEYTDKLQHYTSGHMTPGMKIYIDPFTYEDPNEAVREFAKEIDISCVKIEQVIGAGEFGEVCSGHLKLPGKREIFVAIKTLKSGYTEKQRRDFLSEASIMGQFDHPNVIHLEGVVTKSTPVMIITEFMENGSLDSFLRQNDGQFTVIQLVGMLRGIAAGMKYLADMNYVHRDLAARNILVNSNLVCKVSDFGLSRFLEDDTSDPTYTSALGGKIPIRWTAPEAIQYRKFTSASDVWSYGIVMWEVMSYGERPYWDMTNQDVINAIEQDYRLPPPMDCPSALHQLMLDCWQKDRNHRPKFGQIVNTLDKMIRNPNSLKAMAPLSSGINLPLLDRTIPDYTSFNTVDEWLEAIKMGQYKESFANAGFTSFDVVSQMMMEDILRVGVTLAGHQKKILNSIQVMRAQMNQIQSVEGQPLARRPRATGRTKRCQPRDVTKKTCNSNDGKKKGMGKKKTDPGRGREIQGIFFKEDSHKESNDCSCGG
Fyn, sequence (P06241 whole entry, looked up): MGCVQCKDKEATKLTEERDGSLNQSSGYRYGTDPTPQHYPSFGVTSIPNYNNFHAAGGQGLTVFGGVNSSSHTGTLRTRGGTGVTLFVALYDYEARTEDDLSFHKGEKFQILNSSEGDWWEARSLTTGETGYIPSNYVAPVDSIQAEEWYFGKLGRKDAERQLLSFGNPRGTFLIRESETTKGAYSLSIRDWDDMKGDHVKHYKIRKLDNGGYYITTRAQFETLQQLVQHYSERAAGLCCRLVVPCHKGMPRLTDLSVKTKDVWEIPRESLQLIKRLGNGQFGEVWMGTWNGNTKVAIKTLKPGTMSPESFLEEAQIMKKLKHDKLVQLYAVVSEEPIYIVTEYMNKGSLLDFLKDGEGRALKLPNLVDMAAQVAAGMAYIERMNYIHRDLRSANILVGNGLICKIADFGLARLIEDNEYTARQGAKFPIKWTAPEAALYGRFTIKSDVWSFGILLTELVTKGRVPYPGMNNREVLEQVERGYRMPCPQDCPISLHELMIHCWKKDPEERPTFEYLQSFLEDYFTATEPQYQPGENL
Fes, sequence (P07332 whole entry, looked up): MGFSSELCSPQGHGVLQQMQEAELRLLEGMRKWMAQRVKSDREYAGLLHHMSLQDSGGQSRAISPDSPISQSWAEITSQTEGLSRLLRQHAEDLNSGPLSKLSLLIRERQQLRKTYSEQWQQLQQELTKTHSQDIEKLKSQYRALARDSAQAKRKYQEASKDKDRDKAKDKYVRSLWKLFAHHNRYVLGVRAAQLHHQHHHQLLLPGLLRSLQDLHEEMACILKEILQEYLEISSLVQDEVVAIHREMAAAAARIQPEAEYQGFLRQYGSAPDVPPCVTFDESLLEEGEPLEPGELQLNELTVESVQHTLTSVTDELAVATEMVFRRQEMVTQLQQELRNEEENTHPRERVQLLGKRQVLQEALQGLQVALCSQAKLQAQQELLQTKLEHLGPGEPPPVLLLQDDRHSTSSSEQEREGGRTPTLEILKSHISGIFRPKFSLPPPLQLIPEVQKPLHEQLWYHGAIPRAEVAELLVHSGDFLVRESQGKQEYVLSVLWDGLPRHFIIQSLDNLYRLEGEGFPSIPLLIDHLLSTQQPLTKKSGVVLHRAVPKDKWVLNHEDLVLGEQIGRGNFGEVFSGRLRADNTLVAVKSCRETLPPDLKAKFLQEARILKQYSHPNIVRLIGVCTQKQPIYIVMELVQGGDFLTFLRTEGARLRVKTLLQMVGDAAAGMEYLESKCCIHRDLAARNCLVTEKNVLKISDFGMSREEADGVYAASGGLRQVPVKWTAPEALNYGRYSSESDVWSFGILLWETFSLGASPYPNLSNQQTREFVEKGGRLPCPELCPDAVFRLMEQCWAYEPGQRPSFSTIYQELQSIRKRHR

| Sequence | SH2 binding enrichment (SHP2-C SH2) | SH2 binding enrichment (c-Src SH2) | SH2 binding enrichment (Grb2 SH2) | phosphorylation enrichment (Fer (mouse)) | phosphorylation enrichment (FGFR1) | phosphorylation enrichment (FGFR3) | phosphorylation enrichment (Fyn) | phosphorylation enrichment (Fes) | phosphorylation enrichment (EPHB2) | phosphorylation enrichment (AncSZ) | phosphorylation enrichment (MERTK) | phosphorylation enrichment (EPHB1) | phosphorylation enrichment (Hck) | phosphorylation enrichment (Jak2) | phosphorylation enrichment (c-Src) | phosphorylation enrichment (c-Abl (mouse)) |
| --- | --- | --- | --- | --- | --- | --- | --- | --- | --- | --- | --- | --- | --- | --- | --- | --- |
| KEDSVYGSQSV [NFKB2_Y868_A867V] | 0.554 | 0.389 | 1.03 | 0.498 | 0.353 | 0.557 | 1.43 | 0.946 | 0.41 | 0.829 | 0.399 | 0.449 | 0.984 | 0.794 | 1.35 | 0.608 |
| KELAPYDENCF [RPS19_Y48_W52C] | 0.803 | 1.32 | 1.24 | 0.632 | 0.573 | 0.902 | 0.583 | 1.48 | 0.696 | 1.32 | 0.487 | 0.628 | 0.57 | 1.31 | 0.612 | 0.997 |
| KFEDVYVGICL [B3GALNT1_Y269] | 0.41 | 0.458 | 0.647 | 2.52 | 1.23 | 1.24 | 3.06 | 1.33 | 0.715 | 1.37 | 0.592 | 0.857 | 1.99 | 1.16 | 2.92 | 1.02 |
| KFMVGYEMLAQ [GALT_Y339] | 0.892 | 3.23 | 1.33 | 0.511 | 0.553 | 0.697 | 0.417 | 0.897 | 0.504 | 0.88 | 0.343 | 0.519 | 0.526 | 0.833 | 0.382 | 0.622 |
| KFVVVYFRETD [IL17RB_Y447_I451T_YF] | 1.55 | 1.33 | 2.19 | 0.484 | 0.512 | 0.734 | 0.463 | 1.23 | 0.597 | 1.36 | 0.417 | 0.637 | 0.57 | 1.11 | 0.377 | 0.734 |
| KGEDFYCVTRH [FHL1_Y149_C153R] | 0.694 | 0.357 | 0.766 | 0.662 | 0.498 | 0.715 | 0.633 | 1.2 | 0.558 | 1.22 | 0.82 | 0.592 | 0.808 | 1 | 0.794 | 0.835 |
| KGKLIYLLRDS [NXPE1_Y350_G353R] | 3.18 | 1.75 | 2.45 | 0.492 | 0.428 | 0.599 | 0.49 | 0.964 | 0.447 | 0.719 | 0.443 | 0.455 | 0.599 | 0.692 | 0.516 | 0.666 |
| KHCEDYVCSYN [DSC1_Y846] | 0.874 | 1.05 | 0.913 | 0.506 | 0.627 | 0.662 | 0.502 | 1.23 | 0.578 | 1.14 | 0.398 | 0.63 | 0.555 | 0.93 | 1.36 | 0.771 |
| KIIRRYVSSEG [ANK2_Y3907] | 0.533 | 0.421 | 0.637 | 0.365 | 0.384 | 0.34 | 0.41 | 0.479 | 0.358 | 0.509 | 0.351 | 0.321 | 0.371 | 0.531 | 0.458 | 0.416 |
| KILTHYKQPHT [KMT2D_Y5349_R5351Q] | 0.998 | 0.907 | 1.05 | 0.384 | 0.437 | 0.412 | 0.478 | 0.565 | 0.403 | 0.763 | 0.506 | 0.364 | 0.46 | 0.726 | 0.416 | 1.18 |
| KKHFSYAWPFF [BRDT_Y291_YF] | 2.15 | 1.77 | 1.8 | 0.487 | 0.545 | 0.653 | 0.428 | 1.13 | 0.494 | 1.03 | 1.64 | 0.467 | 0.428 | 0.976 | 0.529 | 0.661 |

More lines, main results first:

| SH2 binding enrichment (SHP2-C SH2) | SH2 binding enrichment (c-Src SH2) | SH2 binding enrichment (Grb2 SH2) | Sequence | phosphorylation enrichment (Fer (mouse)) | phosphorylation enrichment (FGFR1) | phosphorylation enrichment (FGFR3) | phosphorylation enrichment (Fyn) | phosphorylation enrichment (Fes) | phosphorylation enrichment (EPHB2) | phosphorylation enrichment (AncSZ) | phosphorylation enrichment (MERTK) | phosphorylation enrichment (EPHB1) | phosphorylation enrichment (Hck) | phosphorylation enrichment (Jak2) | phosphorylation enrichment (c-Src) | phosphorylation enrichment (c-Abl (mouse)) |
| --- | --- | --- | --- | --- | --- | --- | --- | --- | --- | --- | --- | --- | --- | --- | --- | --- |
| 0.712 | 0.533 | 0.981 | KDYETYQSFQN [CTNND2_Y1157_P1159S] | 0.651 | 0.551 | 0.691 | 6.69 | 1.03 | 8.93 | 1.33 | 0.427 | 7.69 | 5.74 | 1.03 | 4.92 | 0.875 |
| 0.854 | 0.525 | 0.74 | KERNQYGGVMV [MMP21_Y347_E349G] | 0.474 | 0.418 | 0.475 | 0.556 | 0.594 | 0.394 | 0.534 | 0.394 | 0.361 | 0.474 | 0.425 | 0.507 | 0.44 |
| 1.33 | 1.27 | 1.38 | KGELRYMHSRV [ABCD1_Y281] | 0.375 | 0.428 | 0.44 | 0.303 | 0.746 | 0.348 | 0.568 | 0.378 | 0.396 | 0.377 | 0.618 | 0.48 | 0.517 |
| 0.678 | 0.453 | 0.863 | KGFRGYSFDDI [TMEM230_Y110_YF] | 0.409 | 0.41 | 0.501 | 0.402 | 0.798 | 0.541 | 0.824 | 0.375 | 0.495 | 0.412 | 0.835 | 0.452 | 0.551 |
| 0.806 | 0.709 | 0.836 | KKCTRYIDCAL [ASPA_Y64_D68A] | 0.418 | 0.394 | 0.568 | 0.336 | 0.755 | 0.394 | 0.684 | 0.338 | 0.374 | 0.356 | 0.595 | 0.371 | 0.55 |
| 1.67 | 1.24 | 1.42 | KKLHKYNTQFQ [PIK3R1_Y452_E451K] | 0.503 | 0.496 | 1.13 | 0.355 | 0.909 | 0.46 | 0.577 | 0.487 | 0.511 | 0.425 | 1.55 | 0.416 | 1.06 |
